Results reported in the supplement of paper PMC10567573.

B1: FAM164C (parent)
chain: YPHCTGISQQDPESDSQGQGNGLF
B2: ZNF263 (parent)
chain: QPKKLHLCPLCGKNFSNNSNLIRH

Variants of: B1
Assay: protein stability index of a GFP-peptide fusion (GPS, HEK-293T) (PSI 1-6); higher = more stable
Conditions: c terminus: a fixed tail appended
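Note: lentivirally expressed fusions sorted by FACS into six bins by GFP to DsRed ratio, PSI derived from sequencing read proportions per bin multiplied by bin number.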

Protein stability index, by site and new letter:
T5: V 3.18 | R 2.71 | I 3.34 | N 3.32 | Q 3.89 | D 4.6 | L 2.35 | A 3.46 | C 1.9 | G 2.93 | F 2.32 | Y 3.17 | M 2.23 | K 3.55 | H 3.2 | W 1.68 | P 3.25 | S 3.53 | E 4.49
H3: P 3.32 | S 3.07 | L 3.37 | T 4.12 | M 3.46 | Q 3.29 | I 4.18 | N 4.09 | C 3.1 | G 3.39 | W 3.22 | K 3.9 | R 3.6 | E 4.58 | F 4 | A 3.75 | V 4.34 | Y 3.2 | D 4.48
D11: Y 2.94 | E 4.2 | H 3.12 | W 2.32 | I 3.1 | L 3.37 | S 3.58 | N 3.62 | T 3.17 | F 2.96 | G 3.18 | C 3.15 | A 3.66 | K 3.85 | Q 3.73 | R 3.29 | P 3.85 | M 3.41 | V 3.5
Q9: A 4.06 | M 3.49 | C 3.43 | R 3.68 | W 2.48 | F 3.05 | K 3.42 | L 2.98 | Y 3.11 | I 3.71 | E 3.89 | P 3.67 | V 3.19 | H 3.58 | D 3.91 | T 3.63 | G 3.85 | N 3.5 | S 3.97
P12: Q 3.71 | M 3.6 | I 3.51 | W 3.27 | T 3.74 | V 3.96 | N 3.48 | R 3.18 | H 3.73 | L 3.65 | E 4.08 | G 3.45 | D 3.91 | A 3.95 | K 3.57 | S 3.98 | C 3.77 | F 3.56 | Y 3.54
E13: P 3.51 | C 3.34 | D 3.87 | K 3.28 | H 3.4 | A 3.46 | L 2.81 | N 3.23 | I 3.21 | G 3.38 | F 2.44 | M 3.21
Q10: I 3.64 | K 4 | D 3.68 | N 4.05 | L 2.96 | Y 3.07 | H 3.65 | W 2.87 | C 3.1 | A 3.48 | M 3.84 | S 3.48 | R 3.54 | T 3.64 | V 3.74 | P 3.78 | G 3.88 | E 3.87 | F 3.19
S8: L 3.35 | G 3.52 | K 4.15 | A 3.51 | Y 2.75 | V 3.73 | T 3.74 | W 1.84 | C 3.11 | I 3.59 | D 3.91 | N 3.39 | Q 3.95 | P 3.91 | M 3.33 | H 3.65 | R 3.57 | F 2.69 | E 4.17
P2: L 3.96 | E 5.31 | Y 4.22 | I 2.83 | A 3.57 | R 4.71 | Q 3.58 | V 1.91 | H 2.9 | D 5.09 | T 3.35 | G 4.47 | W 3.67 | N 4.54 | M 4.07 | S 4.65 | C 2.45 | K 4.51 | F 3.86
I7: K 3.56 | G 3.83 | W 1.51 | Q 4.01 | L 3.9 | V 3.82 | E 4.68 | S 3.86 | F 2.21 | N 4.11 | H 4 | P 4.18 | R 3.94 | C 3.56 | T 3.95 | Y 2.64 | M 3.38 | D 4.45 | A 4.04
C4: H 4.24 | T 4.32 | E 4.82 | N 4.25 | S 4.16 | I 3.72 | R 4.06 | A 3.92 | Q 4.53 | L 4.36 | Y 3.17 | F 3.58 | D 5.02 | W 2.75 | P 3.37 | M 4.36 | V 4.07 | G 3.5 | K 4.39
G6: A 3.53 | H 3.62 | Q 3.58 | L 3.25 | Y 2.77 | F 3.01 | V 4.17 | M 3.34 | R 3.45 | E 4.46 | W 2.87 | N 3.56 | K 3.23 | P 2.25 | I 3.25 | S 3.82 | C 2.46 | D 4.23 | T 3.51
Y1: M 5.4 | W 4.43 | Q 5.36 | V 5.07 | S 5.39 | H 4.85 | K 5.28 | D 5.46 | P 5.37 | R 4.63 | L 5.44 | C 4.29 | T 5.38 | N 5.28 | I 5.14 | E 5.25 | A 5.44 | G 5.44 | F 3.49

Variants of: B2
Assay: as above
Conditions: c terminus: a fixed tail appended

Protein stability index: each site, then its substitutions
H24: Q 2.43 | F 2.44 | N 2.22 | A 1.74 | T 2.35 | R 2.07 | P 2.56 | S 2.4 | L 2.24 | E 2.43 | I 2.08 | W 2.38 | C 1.84 | Y 2.61 | D 2.11 | K 2.64 | M 2.31 | V 2.27 | G 2.43
I22: G 1.98 | T 2.35 | M 2.88 | E 3.45 | Q 3.09 | K 2.33 | V 2.73 | P 2.19 | S 2.55 | Y 2.69 | D 2.86 | C 4.04 | H 2.76 | A 2.8 | L 2.93 | R 2.76 | N 2.5 | F 2.47 | W 1.79
N20: P 2.49 | H 2.69 | L 3.05 | S 3.09 | G 2.46 | M 2.54 | I 1.94 | T 2.94 | Q 4.04 | R 2.01 | V 2.04 | E 3.42 | Y 2.56 | W 1.57 | K 3 | D 4 | F 1.57 | C 3.21
R23: F 2.42 | V 2.33 | L 2 | H 2.56 | S 2.78 | D 3.77 | Q 2.77 | K 3.19 | Y 1.91 | A 3.08 | G 2.65 | W 1.76 | C 3 | E 3.06 | N 2.96 | T 2.92 | I 1.91 | M 2.52 | P 2.93
L21: I 2.47 | T 2.56 | F 2.32 | W 2.44 | C 3.13 | K 2.87 | R 2.64 | Y 2.12 | E 2.92 | P 1.93 | S 2.19 | Q 2.38 | A 2.56 | M 2.48 | G 2.62 | H 2.83 | N 2.44 | V 2.85 | D 2.72
